Test results taken from patent US20240116985A1 (published 2024).
Starred links: 1 amine or outer side, 2 acyl side, 3 side chain; linkers in the order of their positions; H or OH if unused. Positions of bridges follow the written chain, without caps; N, C: chain ends. Non-standard residues stand in square brackets, D forms with d. Primed or numbered codes have the meaning given here. B5(15) = 2-amino-2-(pent-4-en-1-yl)hept-6-enoic acid (2,2-bis(4-pentenyl)glycine), stitching residue bearing two staples, C=CCCCC(CCCC=C)(N[*:1])C(=O)[*:2]; PyrS2″ = (S)-3-amino-1-((pent-4-en-1-yloxy)carbonyl)pyrrolidine-3-carboxylic acid (stapling residue), C=CCCCOC(=O)N1CC[C@@](N[*:1])(C(=O)[*:2])C1; B5(16) = 2-amino-2-(pent-4-en-1-yl)hept-6-enoic acid = 2,2-bis(4-pentenyl)glycine (stitching residue), C=CCCCC(CCCC=C)(N[*:1])C(=O)[*:2]; B5(4) = 2,2-bis(4-pentenyl)glycine = 2-amino-2-(pent-4-en-1-yl)hept-6-enoic acid (stitching residue), C=CCCCC(CCCC=C)(N[*:1])C(=O)[*:2]; B5(5) = 2,2-bis(4-pentenyl)glycine, 2-amino-2-(pent-4-en-1-yl)hept-6-enoic acid (stitching residue), C=CCCCC(CCCC=C)(N[*:1])C(=O)[*:2]; PyrS2 = (S)-3-amino-1-((pent-4-en-1-yloxy)carbonyl)pyrrolidine-3-carboxylic acid, C=CCCCOC(=O)N1CC[C@@](N[*:1])(C(=O)[*:2])C1; Phe(2-Cl) = N[C@@H](Cc1ccccc1Cl)C(=O)O; Bta = N[C@@H](Cc1csc2ccccc12)C(=O)O; αAllylPro = C=CC[C@@]1(C(=O)O)CCCN1; S8 = C=CCCCCCC[C@](C)(N)C(=O)O; hSer = N[C@@H](CCO)C(=O)O

B1: I-1041 (peptide)
peptide: Ac-[αAllylPro]DF[B5(16)]DDAAFN[PyrS2″][Phe(2-Cl)][Bta]Q-NH2
modifications: staple 1-4, 4-11
notes: also called Ac-PL3-Asp-Phe-B5-Asp-Asp-Ala-Ala-Phe-Asn-PyrS2-2C1F-BztA-Gln-NH2
B2: I-1045 (peptide)
peptide: Ac-[αAllylPro]DF[B5(16)]DDAAFS[PyrS2″][Phe(2-Cl)][Bta]Q-NH2
modifications: staple 1-4, 4-11
notes: also called Ac-PL3-Asp-Phe-B5-Asp-Asp-Ala-Ala-Phe-Ser-PyrS2-2C1F-BztA-Gln-NH2
B3: I-1043 (peptide)
peptide: Ac-[αAllylPro]DF[B5(16)]DDAAFT[PyrS2″][Phe(2-Cl)][Bta]Q-NH2
modifications: staple 1-4, 4-11
notes: also called Ac-PL3-Asp-Phe-B5-Asp-Asp-Ala-Ala-Phe-Thr-PyrS2-2C1F-BztA-Gln-NH2
B4: I-1051 (peptide)
peptide: Ac-[αAllylPro]DF[B5(4)]DDAAFS[PyrS2][Phe(2-Cl)][Bta]S-NH2
modifications: staple 1-4, 4-11
notes: also called Ac-PL3-Asp-Phe-B5-Asp-Asp-Ala-Ala-Phe-Ser-PyrS2-2C1F-BztA-Ser-NH2
B5: I-1047 (peptide)
peptide: Ac-[αAllylPro]DF[B5(16)]DDAAFN[PyrS2″][Phe(2-Cl)][Bta]S-NH2
modifications: staple 1-4, 4-11
notes: also called Ac-PL3-Asp-Phe-B5-Asp-Asp-Ala-Ala-Phe-Asn-PyrS2-2C1F-BztA-Ser-NH2
B6: I-1526: Ac-PL3-Asp-Ser-B5-Asp-Glu-Ala-Ala-Phe-Gln-S8-Phe-BztA-Gln-NH2 (peptide)
peptide: Ac-[αAllylPro]DS[B5(5)]DEAAFQ[S8]F[Bta]Q-NH2
modifications: staple 1-4, 4-11; also: staple isomer, earlier eluting HPLC peak
notes: Stapled peptide composition; It has the same description as I-1527 and is the staple isomer composition of the earlier eluting HPLC peak
B7: I-1530: Ac-PL3-Asp-Ser-B5-Asp-Glu-Ala-Ala-Phe-Hse-S8-Phe-BztA-Gln-NH2 (peptide)
peptide: Ac-[αAllylPro]DS[B5(15)]DEAAF[hSer][S8]F[Bta]Q-NH2
modifications: staple 1-4, 4-11; not fully specified; printed as Ac-PL3-Asp-Ser-B5-Asp-Glu-Ala-Ala-Phe-Hse-S8-Phe-BztA-Gln-NH2
notes: Stapled peptide composition; It has the same description as I-1529 and is the staple isomer composition of the later eluting HPLC peak
B8: I-1528: Ac-PL3-Asp-Ser-B5-Asp-Glu-Ala-Ala-Phe-Leu-S8-Phe-BztA-Gln-NH2 (peptide)
peptide: Ac-[αAllylPro]DS[B5(5)]DEAAFL[S8]F[Bta]Q-NH2
modifications: staple 1-4, 4-11
notes: Stapled peptide composition; Staple olefins are retained
B9: I-1531: Ac-PL3-Asp-Asn-B5-Asp-Glu-Ala-Ala-Phe-Gln-S8-Phe-BztA-Gln-NH2 (peptide)
peptide: XDNXDEAAFQXFXQ
modifications: not fully specified; N-terminal Ac; C-terminal NH2; PL3 at 1, B5 at 4 and S8 at 11 stapled by olefin metathesis (PL3-B5 and B5-S8); BztA at 13
notes: Stapled peptide composition; It has the same description as I-1532 and is the staple isomer composition of the earlier eluting HPLC peak
B10: I-1529: Ac-PL3-Asp-Ser-B5-Asp-Glu-Ala-Ala-Phe-Hse-S8-Phe-BztA-Gln-NH2 (peptide)
peptide: Ac-[αAllylPro]DS[B5(15)]DEAAF[hSer][S8]F[Bta]Q-NH2
modifications: staple 1-4, 4-11; not fully specified; printed as Ac-PL3-Asp-Ser-B5-Asp-Glu-Ala-Ala-Phe-Hse-S8-Phe-BztA-Gln-NH2
notes: Stapled peptide composition
B11: I-1527: Ac-PL3-Asp-Ser-B5-Asp-Glu-Ala-Ala-Phe-Gln-S8-Phe-BztA-Gln-NH2 (peptide)
peptide: Ac-[αAllylPro]DS[B5(5)]DEAAFQ[S8]F[Bta]Q-NH2
modifications: staple 1-4, 4-11
notes: Stapled peptide composition; It has the same description as I-1526 and is the staple isomer composition of the later eluting HPLC peak

These binders were tested against T1, B-cat-Halo (UniProt P35222 1-781) (assay: cell-based or functional assay).
T1 sequence (looked up): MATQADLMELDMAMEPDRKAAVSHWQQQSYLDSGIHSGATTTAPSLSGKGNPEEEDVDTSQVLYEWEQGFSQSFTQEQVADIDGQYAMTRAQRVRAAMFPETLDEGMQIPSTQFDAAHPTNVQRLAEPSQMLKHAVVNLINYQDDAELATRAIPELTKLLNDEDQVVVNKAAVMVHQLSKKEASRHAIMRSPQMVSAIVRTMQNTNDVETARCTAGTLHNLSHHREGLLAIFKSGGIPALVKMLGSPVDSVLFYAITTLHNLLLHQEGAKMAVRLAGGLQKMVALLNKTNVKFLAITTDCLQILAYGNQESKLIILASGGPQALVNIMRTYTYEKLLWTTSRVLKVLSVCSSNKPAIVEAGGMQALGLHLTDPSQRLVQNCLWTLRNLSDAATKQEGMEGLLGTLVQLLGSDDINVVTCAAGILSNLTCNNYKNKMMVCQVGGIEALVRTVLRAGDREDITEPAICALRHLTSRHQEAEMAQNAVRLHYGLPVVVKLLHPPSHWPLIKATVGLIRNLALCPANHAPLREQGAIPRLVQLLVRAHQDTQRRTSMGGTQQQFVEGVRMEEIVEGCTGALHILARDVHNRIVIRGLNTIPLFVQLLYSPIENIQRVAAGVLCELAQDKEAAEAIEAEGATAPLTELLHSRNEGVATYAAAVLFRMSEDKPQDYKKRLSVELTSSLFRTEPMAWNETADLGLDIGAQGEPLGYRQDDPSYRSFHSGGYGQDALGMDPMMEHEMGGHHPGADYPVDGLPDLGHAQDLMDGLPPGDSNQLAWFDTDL
B1 was tested, and the “NanoBRET Abs IC50” value was over 20000 nM.
For B2, the “NanoBRET Abs IC50” value was 23900 nM.
In the case of B3, the “NanoBRET Abs IC50” value is reported as over 20000 nM.
With B4 the “NanoBRET Abs IC50” value was over 20000 nM.
B5 was tested, and the “NanoBRET Abs IC50” value was 28400 nM.

The binders below were run against T2, B-cat-Halo (beta-catenin HaloTag NanoBRET construct expressed in HEK293 cells) (UniProt P35222 1-781, HaloTag NanoBRET 618 Ligand bound to the HaloTag) (assay: cell-based or functional assay).
T2 sequence (looked up): T1 sequence (looked up)
For B6, the “NanoBRET Abs IC50” value was over 20000 nM.
With B7 the “NanoBRET Abs IC50” value was 36900 nM.
B8 was tested, and the “NanoBRET Abs IC50” value was 31400 nM.
B9 was tested, and the “NanoBRET Abs IC50” value was over 20000 nM.
With B10 the “NanoBRET Abs IC50” value was over 20000 nM.
In the case of B11, the “NanoBRET Abs IC50” value is reported as 30300 nM.

The binders below were run against T3, beta-catenin (Homo sapiens (Human), UniProt P35222 1-781) (assay: fluorescence polarization competition; full-length beta-catenin with 5FAM-TCF4(10-53) probe as competitor).
T3 construct: The FP protocol says full-length beta-Catenin (Uniprot ID P35222); also called full-length beta-Catenin; bCat
T3 sequence: T1 sequence (looked up)
How it was run: (§1)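 Readings followed a light-protected 60-minute incubation at 20° C. Each read was done in duplicate. Curves were fit with a 1:1 binding model including hill slope, and stated concentrations are final.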
Binder Ac-[αAllylPro]DS[B5(4)]DDAAFL[PyrS2][Phe(2-Cl)][Bta]L-NH2 (staple 1-4, 4-11, stapled peptide) [I-1423] has an EC50 of 389 nM.
In the case of Ac-[αAllylPro]DT[B5(4)]DDAAFL[PyrS2][Phe(2-Cl)][Bta]L-NH2 (staple 1-4, 4-11, stapled peptide) [I-1424], the EC50 is reported as 235 nM.

These binders were tested against T4, full-length beta-Catenin (Uniprot ID P35222) (Homo sapiens (Human), UniProt P35222 1-781) (assay: fluorescence polarization competition; full-length beta-catenin with 5FAM-TCF4(10-53) probe, peptide titrated).
T4 construct: Tags are not described; Also used here as the target of the DLD1 TCF reporter read-out (endogenous beta-catenin in DLD1 cells); also called bCat; B-Catenin
T4 sequence: T1 sequence (looked up)
Description: The plate was incubated protected from light for 60 minutes at 20° C. prior to read. Reads were performed on a CLARIOstar plate reader (BMG Labtech) in duplicate, and data were fitted to a 1:1 binding model with hill slope using an in-house script. All provided concentrations are final concentrations.
With B1 the IC50 was 8 nM.
For B2, the IC50 was 5 nM.
For B3, the IC50 was 12 nM.
Binder B4 has an IC50 of 14 nM.
With B5 the IC50 was 5 nM.

These binders were tested against T5, full-length beta-Catenin (Uniprot ID P35222) (Homo sapiens (Human), UniProt P35222 1-781) (assay: fluorescence polarization competition; displacement of 5FAM-TCF4(10-53) from full-length beta-catenin).
T5 construct: Any tags on the recombinant protein are not described for the FP assay; also called bCat; B-Catenin
T5 sequence: T1 sequence (looked up)
How it was run: as §1
B6 showed an IC50 of 84 nM.
In the case of B7, the IC50 is reported as 61 nM.
B8 gave an IC50 of 102 nM.
With B9 the IC50 was 84 nM.
In the case of B10, the IC50 is reported as 126 nM.
Binder B11 has an IC50 of 36 nM.
